Tests used:
[1] = target: human CD94 expressed on cells (human primary NK cells in PBMCs; HEK cells expressing human CD94) (human) (UniProt Q13241); experiment: flow cytometry, PE HLA-E tetramer on NK cells of PBMCs pre-incubated with antibody; competitor HLA-E tetramer
[2] = target: human CD94 expressed on cells (human primary NK cells in PBMCs; HEK cells expressing human CD94) (human) (UniProt Q13241); experiment: flow cytometry titration on CD3-CD56+ NK cells in healthy donor PBMCs; 'Affinity on Human NK Cells'; the filing derives these affinities as EC50 of titration curves (the 2.6nM of 18H3 is labelled EC50 in FIG. 1)
[3] = target: human CD94 expressed on cells (human primary NK cells in PBMCs; HEK cells expressing human CD94) (human) (UniProt Q13241); experiment: HLA-E tetramer blocking assay, flow cytometry on CD3-CD56+ NK cells in healthy donor PBMCs; antibody at one saturating concentration, blocked ligand PE-labelled HLA-E tetramer; percent blocking = 100-((percent HLA-E positive with antibody)/(percent HLA-E positive with isotype)*100)
[4] = target: human CD94 expressed on cells (human primary NK cells in PBMCs; HEK cells expressing human CD94) (human) (UniProt Q13241); experiment: cell-based or functional assay
[5] = target: human CD94 expressed on cells (human primary NK cells in PBMCs; HEK cells expressing human CD94) (human) (UniProt Q13241); experiment: competition assay, flow cytometry on CD3-CD56+ NK cells in healthy donor PBMCs; HP-3B1 titrated in the presence of Human IgG1 control (no competitor)
[6] = target: human CD94 expressed on cells (human primary NK cells in PBMCs; HEK cells expressing human CD94) (human) (UniProt Q13241); experiment: as above; remark: listed apart in the source
[7] = target: human CD94 expressed on cells (human primary NK cells in PBMCs; HEK cells expressing human CD94) (human) (UniProt Q13241); experiment: competition assay, flow cytometry on CD3-CD56+ NK cells in healthy donor PBMCs; HP-3B1 titrated in the presence of Mouse IgG1 control (no competitor)

Chain of human CD94 expressed on cells (human primary NK cells in PBMCs; HEK cells expressing human CD94) (human) (Q13241 whole entry): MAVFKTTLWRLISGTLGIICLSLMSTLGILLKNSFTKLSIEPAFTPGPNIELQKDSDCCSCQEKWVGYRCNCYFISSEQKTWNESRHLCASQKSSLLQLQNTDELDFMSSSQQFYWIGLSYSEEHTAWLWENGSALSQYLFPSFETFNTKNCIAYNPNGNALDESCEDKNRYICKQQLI

Substance	percent HLA-E blocking [1]	EC50 [2]	HLA-E Blocking [3]	percent decrease in MFI (antibody internalization assay), comparing 0.5 hours to 24 hours at 37° C. [4]	EC50 (read off the curve) [5]	EC50 (read off the curve) [6]	EC50 (read off the curve) [7]
commercial anti-CD94 antibody clone 12K45	> 40%	7 nM	47%				
commercial anti-CD94 antibody clone 131412	> 40%	11 nM	40%				
commercial anti-CD94 antibody clone HP-3B1	> 40%	3 nM	99.8%		2 nM	3 nM	2 nM

Now those with a lower EC50 [2], led by results:

percent HLA-E blocking [1]	EC50 [2]	HLA-E Blocking [3]	percent decrease in MFI (antibody internalization assay), comparing 0.5 hours to 24 hours at 37° C. [4]	EC50 (read off the curve) [5]	EC50 (read off the curve) [6]	EC50 (read off the curve) [7]	Substance
> 40%	0.15 nM	99%	56%				commercial anti-CD94 antibody clone DX22
> 40%	0.07 nM	99%	54%				commercial anti-CD94 antibody clone HP-3D9
